Assay results as given in PMC1373692.
Where two headings read alike, the source gives them in different places.

Assays:
[1] = target: T1, RecJ (native wild-type) (Escherichia coli, UniProt P21893 1-577); test: EMSA
T1 sequence: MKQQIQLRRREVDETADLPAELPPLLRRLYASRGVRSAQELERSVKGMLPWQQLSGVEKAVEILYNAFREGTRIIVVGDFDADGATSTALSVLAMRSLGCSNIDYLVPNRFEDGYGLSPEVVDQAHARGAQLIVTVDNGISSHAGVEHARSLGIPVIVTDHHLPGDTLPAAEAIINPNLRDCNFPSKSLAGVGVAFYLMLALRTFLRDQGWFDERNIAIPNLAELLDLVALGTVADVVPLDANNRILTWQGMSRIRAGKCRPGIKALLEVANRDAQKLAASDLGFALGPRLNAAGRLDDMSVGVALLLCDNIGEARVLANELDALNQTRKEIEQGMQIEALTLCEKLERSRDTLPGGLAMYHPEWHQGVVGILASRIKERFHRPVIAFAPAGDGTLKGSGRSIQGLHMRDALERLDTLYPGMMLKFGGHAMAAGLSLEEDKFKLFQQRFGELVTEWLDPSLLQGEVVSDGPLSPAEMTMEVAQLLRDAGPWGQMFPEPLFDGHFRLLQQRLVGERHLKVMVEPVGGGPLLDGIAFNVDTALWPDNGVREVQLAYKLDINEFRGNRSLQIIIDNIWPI

[2] = target: T1, RecJ (native wild-type); test: EMSA; remark: listed apart in the source
[3] = target: T2, RecJf (MBP-RecJ fusion) (UniProt P21893 1-577); test: EMSA
T2 sequence: T1 sequence

[4] = target: SSB (UniProt P0AGE0 2-178); test: EMSA
[5] = target: T1, RecJ (native wild-type); test: EMSA; remark: listed apart in the source
[6] = target: RecJ (native wild-type);SSB (Escherichia coli;Escherichia coli?, UniProt P21893;P0AGE0 1-577;2-178, |); test: EMSA, supershift
[7] = target: T1, RecJ (native wild-type); test: EMSA; remark: listed apart in the source

SSB, sequence (P0AGE0 2-178): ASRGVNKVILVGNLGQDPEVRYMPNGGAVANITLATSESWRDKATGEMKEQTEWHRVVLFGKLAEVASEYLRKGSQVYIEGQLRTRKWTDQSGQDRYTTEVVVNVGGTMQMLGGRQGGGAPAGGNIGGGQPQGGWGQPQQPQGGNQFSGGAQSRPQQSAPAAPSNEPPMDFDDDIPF
RecJ (native wild-type);SSB, sequence (P0AGE0 2-178, one chain of several): as the sequence (P0AGE0 2-178) above

B1: A/C 10 nt 5' tail (dsDNA)
DNA 1: GCCCAGGTGGCAGGCCCTAGGGTGGAGGGGAGGCCGCCGGCATGGGGACGCGATGGGCGGAGGCG
DNA 2: CGCCTCCGCCCATCGCGTCCCCATGCCGGCGGCCTCCCCTCCACCCTAGGGCCTG
modifications: 5' phosphate on A from labeling
- Kd [1]: 0.0095 µM

B2: A 8 nt 5' tail (dsDNA)
DNA 1: B1 DNA 1
DNA 2: CGCCTCCGCCCATCGCGTCCCCATGCCGGCGGCCTCCCCTCCACCCTAGGGCCTGCC
modifications: 5' phosphate on A from labeling
- binding result [2]: binds

B3: A 5 nt 5' tail (dsDNA)
DNA 1: B1 DNA 1
DNA 2: CGCCTCCGCCCATCGCGTCCCCATGCCGGCGGCCTCCCCTCCACCCTAGGGCCTGCCACC
modifications: 5' phosphate on A from labeling
- binding result [2]: no binding

B4: A 7 nt 5' tail (dsDNA)
DNA 1: B1 DNA 1
DNA 2: CGCCTCCGCCCATCGCGTCCCCATGCCGGCGGCCTCCCCTCCACCCTAGGGCCTGCCA
modifications: 5' phosphate on A from labeling
- binding result [2]: binds

B5: oligonucleotide A (65mer) (ssDNA)
DNA: B1 DNA 1
modifications: 5' phosphate from labeling
- binding result [3]: binds
- binding result [4]: binds
- binding result [5]: binds
- binding result [6]: binds

B6: A/D 4 nt 5' tail (dsDNA)
DNA 1: B1 DNA 1
DNA 2: CGCCTCCGCCCATCGCGTCCCCATGCCGGCGGCCTCCCCTCCACCCTAGGGCCTGCCACCT
modifications: 5' phosphate on A from labeling
- binding result [7]: no binding

B7: A/E 65 bp duplex (dsDNA)
DNA 1: B1 DNA 1
DNA 2: CGCCTCCGCCCATCGCGTCCCCATGCCGGCGGCCTCCCCTCCACCCTAGGGCCTGCCACCTGGGC
modifications: 5' phosphate on A from labeling
- binding result [7]: no binding

B8: A 9 nt 5' tail (dsDNA)
DNA 1: B1 DNA 1
DNA 2: CGCCTCCGCCCATCGCGTCCCCATGCCGGCGGCCTCCCCTCCACCCTAGGGCCTGC
modifications: 5' phosphate on A from labeling
- binding result [2]: binds

B9: A/B 20 nt 5' tail (dsDNA)
DNA 1: B1 DNA 1
DNA 2: CGCCTCCGCCCATCGCGTCCCCATGCCGGCGGCCTCCCCTCCACC
modifications: 5' phosphate on A from labeling
- Kd [1]: 0.033 µM
